PMC5223209, “New insights into the GINS complex explain the controversy between existing structural models” (Scientific Reports, 2017)

Biological target: the molecule itself
Test: negative-stain electron microscopy; gel-filtration fractions of the low and the high MW peak stained and visualised by EM

B1: S. cerevisiae GINS complex (complex)
chain 1: MDINIDDILAELDKETTAVDSTKITQGSSSTTHRDANTIVGSSLDLNDKTQIYVSPQQDFSDLMKSWKNERCSPELLPYPHQLMKRLLNRISMQSQLIENISMGFLDMQNASNANPPMPNESKLPLLCMETELERLKFVIRSYIRCRLSKIDKFSLYLRQLNEDENSLISLTDLLSKDEIKYHDTHSLIWLKLVNDSILKYMPEELQAINDTEGSVNMIDEPDWNKFVFIHVNGPPDGKWNEDPLLQENEFGKPCYTVTIPDLKEEVELTIGSIYVMRYEVIRDLLRDDKVALI
chain 2: MYGDLGNKLVLEAKRTKQLYARSNQDVNLPMYHEDIIRNILKEVSNLRKNTEYLKEQQQLGMLDDKVAKCQYFVTLLCMERNKRCLLAYQRLRTDILDSMAWNNNGLDLMSSITFSQQDTNNLSHQEQEYLKEYCDLITDLKSGDLVDIDLSGSLVPPSDVFIDVRVLKDAGEIQTEYGVFNLIKDSQFFVRQSDVERLIQQGYLQKI
chain 3: MSLPAHLQQTFSPEEIQFIVENEPIKIFPRITTRQKIRGDDRGTGNHTRWQLITTDDKALNNMVAMRSTEVVLWIALLLKQQSKCSIVAPQWLTTKELDRKIQYEKTHPDRFSELPWNWLVLARILFNKAKDDFHDPIHELRGKIQDLREIRQIKVLKGLKYLNESHLQLDNLSLLEINELRPFITEIMDKLREIHTASLTAGTENDEEEFNI
chain 4: MGYYDIDDVLADGTEFPCKFQYDIPGLGYLENNPGRPITKNTKLSLPLWLARILAIVGGDEALVDEEPVPFVELLPPDMFSTKVMNAIKTDPVALDLHSINSHFFSLAIKWIMLFSEKELANVVSELLLQRAQELNHHASSLSIDLNADSTGKNSANTNIATSTFLLKLEEMEKEIYKKSHESYKDTKRWMFKK
notes: Sld5 subunit of the S. cerevisiae GINS complex; Psf1 subunit of the S. cerevisiae GINS complex; Psf2 subunit of the S. cerevisiae GINS complex; Psf3 subunit of the S. cerevisiae GINS complex; details may be in the Supplementary Information; also called yeast GINS complex; copies: + + +
B1: binds.
